Results reported in US20200131489, “ENGINEERED MEGANUCLEASES SPECIFIC FOR RECOGNITION SEQUENCES IN THE PCSK9 GENE” (Precision BioSciences, Inc., published 2020).

Assays:
Test in all cases: cell_activity; HEK293 mRNA electroporation, 48 h, mock 0.40%
Settings in all cases: tags: N-terminal SV40 NLS
PCS 7-8L.262 = biological target: T1, PCS 7-8L.262 (synthetic (I-CreI derived, …))
T1 chain: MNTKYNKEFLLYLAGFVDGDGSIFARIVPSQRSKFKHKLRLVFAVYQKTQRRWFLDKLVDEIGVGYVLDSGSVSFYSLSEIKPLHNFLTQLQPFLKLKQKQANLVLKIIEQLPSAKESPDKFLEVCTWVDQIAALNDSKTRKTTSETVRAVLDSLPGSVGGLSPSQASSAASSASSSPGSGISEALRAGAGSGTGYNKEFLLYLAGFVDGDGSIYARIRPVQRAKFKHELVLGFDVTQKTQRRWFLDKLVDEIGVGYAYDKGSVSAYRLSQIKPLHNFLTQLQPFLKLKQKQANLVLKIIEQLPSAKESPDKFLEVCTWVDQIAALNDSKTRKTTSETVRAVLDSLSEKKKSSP
Procedure: (§1) In order to directly observe insertions or deletions at the intended PCS 7-8 meganuclease target site, a deep sequencing protocol was used. 2e⁶ HEK 293 cells were electroporated with 5 ug of PCS 7-8 meganuclease mRNA using a BioRad Gene Pulser Xcell according to the manufacturer's instructions. A mock electroporation was also performed with no mRNA. At 48 hours post-transfection, genomic DNA (gDNA) was harvested from cells. The PCS 7-8 locus was amplified by PCR using primers that flank the PCS 7-8 recognition sequence. This amplicon was run on an agarose gel for visual confirmation, extracted using a Macherey-Nagel Nucleospin Gel and PCR Clean-up kit, and sequencing libraries were prepared using the NEBNext Ultra II DNA Library Kit for Illumina from New England Biolabs. The paired-end sequencing libraries were read on an Illumina Miseq DNA sequencer. Sequencing data was analyzed using custom scripts. Reads with start or end points not within 25 bp of the full-length amplicon were removed. The percent of reads with indels was calculated by dividing the number of full-length reads having an indel that incorporated at least one of the middle 8 bp of the recognition sequence by the total number of full-length reads.

PCS 7-8L.204 = biological target: T2, PCS 7-8L.204 (synthetic (I-CreI derived, …))
T2 chain: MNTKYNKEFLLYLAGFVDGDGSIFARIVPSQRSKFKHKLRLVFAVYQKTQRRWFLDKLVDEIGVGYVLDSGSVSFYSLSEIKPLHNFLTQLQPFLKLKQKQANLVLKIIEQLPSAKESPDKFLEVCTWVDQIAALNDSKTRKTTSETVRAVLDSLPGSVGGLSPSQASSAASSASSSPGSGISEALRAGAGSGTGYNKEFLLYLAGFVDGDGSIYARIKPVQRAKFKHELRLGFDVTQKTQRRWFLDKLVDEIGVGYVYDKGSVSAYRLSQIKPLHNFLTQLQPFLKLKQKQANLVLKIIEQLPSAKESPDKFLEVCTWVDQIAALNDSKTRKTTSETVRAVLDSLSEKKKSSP
Procedure: as §1

PCS 7-8L.261 = biological target: T3, PCS 7-8L.261 (synthetic (I-CreI derived, …))
T3 chain: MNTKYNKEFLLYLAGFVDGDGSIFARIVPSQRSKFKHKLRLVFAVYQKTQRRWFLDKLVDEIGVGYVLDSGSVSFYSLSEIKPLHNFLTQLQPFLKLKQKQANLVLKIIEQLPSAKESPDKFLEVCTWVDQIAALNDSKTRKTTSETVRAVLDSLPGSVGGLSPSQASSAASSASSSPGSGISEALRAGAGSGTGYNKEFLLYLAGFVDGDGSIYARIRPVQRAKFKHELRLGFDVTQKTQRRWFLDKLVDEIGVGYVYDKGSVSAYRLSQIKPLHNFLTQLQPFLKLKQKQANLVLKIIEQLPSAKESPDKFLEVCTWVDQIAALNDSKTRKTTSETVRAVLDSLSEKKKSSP
Procedure: as §1

PCS 7-8L.268 = biological target: T4, PCS 7-8L.268 (synthetic (I-CreI derived, …))
T4 chain: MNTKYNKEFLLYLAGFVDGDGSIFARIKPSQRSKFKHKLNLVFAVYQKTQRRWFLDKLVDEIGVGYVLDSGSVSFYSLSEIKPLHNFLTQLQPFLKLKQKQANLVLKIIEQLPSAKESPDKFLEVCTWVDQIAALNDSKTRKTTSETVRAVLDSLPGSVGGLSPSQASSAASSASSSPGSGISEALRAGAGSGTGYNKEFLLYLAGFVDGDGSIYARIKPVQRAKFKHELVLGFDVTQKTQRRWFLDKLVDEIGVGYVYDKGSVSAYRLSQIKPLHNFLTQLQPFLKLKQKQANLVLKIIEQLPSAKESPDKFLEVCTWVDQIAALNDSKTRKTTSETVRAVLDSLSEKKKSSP
Procedure: as §1

PCS 7-8L.209 = biological target: T5, PCS 7-8L.209 (synthetic (I-CreI derived, …))
T5 chain: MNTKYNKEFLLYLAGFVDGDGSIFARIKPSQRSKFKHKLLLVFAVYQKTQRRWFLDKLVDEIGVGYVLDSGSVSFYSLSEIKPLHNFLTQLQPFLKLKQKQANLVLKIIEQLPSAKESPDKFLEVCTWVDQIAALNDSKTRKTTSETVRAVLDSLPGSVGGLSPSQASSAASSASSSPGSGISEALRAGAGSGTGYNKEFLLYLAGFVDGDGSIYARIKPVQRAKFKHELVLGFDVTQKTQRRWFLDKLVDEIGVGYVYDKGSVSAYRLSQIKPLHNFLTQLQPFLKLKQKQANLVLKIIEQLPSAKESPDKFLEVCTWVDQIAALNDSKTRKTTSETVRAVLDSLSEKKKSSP
Procedure: as §1

B1: PCS 7-8 recognition sequence (dsDNA)
DNA 1: TGGACCTCTTTGCCCCAGGGGA
DNA 2: TCCCCTGGGGCAAAGAGGTCCA
activity (PCS 7-8L.262): 53.5 % indels | activity (PCS 7-8L.204): 58.4 % indels | activity (PCS 7-8L.261): 55.4 % indels | activity (PCS 7-8L.268): 52.5 % indels | activity (PCS 7-8L.209): 53.2 % indels
